Reference: the supplement of paper PMC9112550, “Optimization of the antimicrobial peptide Bac7 by deep mutational scanning” (BMC Biology, 2022)

System: Escherichia coli TOP10
Test: shrunken log2 fold change of peptide-encoding DNA abundance (4.5 h post-induction vs induction); higher = less antimicrobial activity (less host growth inhibition)
Settings: time post-induction: 4.5 h; library: site-saturation at positions 5, 18, 19, 20
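Also: peptides expressed intracellularly from a pBAD plasmid library in pooled LB shake-flask culture, induced with 0.3% L-arabinose, DNA abundance read by NGS, three biological replicates, DESeq2 with apeglm shrinkage.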

Sequence | shrunken log2 fold change
RRIRARPPRLPRPRPRPPLGPRP | 0.671
RRIRARPPRLPRPRPRPPMMPRP | 0.421
RRIRARPPRLPRPRPRPPMNPRP | 0.134
RRIRARPPRLPRPRPRPPPDPRP | 1.18
RRIRARPPRLPRPRPRPPPPPRP | 1.46
RRIRARPPRLPRPRPRPPQFPRP | 0.953
RRIRARPPRLPRPRPRPPQMPRP | 0.868
RRIRARPPRLPRPRPRPPQRPRP | 1.16
RRIRARPPRLPRPRPRPPQSPRP | 0.993
RRIRARPPRLPRPRPRPPRCPRP | 0.931
RRIRARPPRLPRPRPRPPRDPRP | 1.04
RRIRARPPRLPRPRPRPPRIPRP | 0.827
RRIRARPPRLPRPRPRPPSVPRP | 0.479
RRIRARPPRLPRPRPRPPVGPRP | 1.18
RRIRARPPRLPRPRPRPPVWPRP | 0.685
RRIRARPPRLPRPRPRPPWYPRP | 0.139
RRIRARPPRLPRPRPRPPYIPRP | -0.38
RRIRARPPRLPRPRPRPPYYPRP | 0.0635
RRIRARPPRLPRPRPRPQAEPRP | 0.892
RRIRARPPRLPRPRPRPQAMPRP | 0.132
RRIRARPPRLPRPRPRPQAYPRP | -0.0327
RRIRARPPRLPRPRPRPQCPPRP | 0.108
RRIRARPPRLPRPRPRPQEWPRP | 0.00318
RRIRARPPRLPRPRPRPQFEPRP | -0.102
RRIRARPPRLPRPRPRPQICPRP | 0.176

Sequence | shrunken log2 fold change
RRIRARPPRLPRPRPRPQITPRP | 0.118
RRIRARPPRLPRPRPRPQLFPRP | 0.18
RRIRARPPRLPRPRPRPQNCPRP | -0.19
RRIRARPPRLPRPRPRPQPAPRP | 0.679
RRIRARPPRLPRPRPRPQPCPRP | 0.276
RRIRARPPRLPRPRPRPQPWPRP | 0.536
RRIRARPPRLPRPRPRPQQLPRP | 0.176
RRIRARPPRLPRPRPRPQQSPRP | 0.54
RRIRARPPRLPRPRPRPQREPRP | 0.869
RRIRARPPRLPRPRPRPQRPPRP | 0.517
RRIRARPPRLPRPRPRPQSLPRP | 0.026
RRIRARPPRLPRPRPRPQTAPRP | 0.188
RRIRARPPRLPRPRPRPQYQPRP | -0.243
RRIRARPPRLPRPRPRPRATPRP | 0.581
RRIRARPPRLPRPRPRPRCCPRP | 0.582
RRIRARPPRLPRPRPRPRDYPRP | 0.204
RRIRARPPRLPRPRPRPREAPRP | 1.25
RRIRARPPRLPRPRPRPREFPRP | 0.441
RRIRARPPRLPRPRPRPRFFPRP | 0.453
RRIRARPPRLPRPRPRPRFRPRP | 0.459
RRIRARPPRLPRPRPRPRHEPRP | 0.638
RRIRARPPRLPRPRPRPRHQPRP | 0.178
RRIRARPPRLPRPRPRPRITPRP | 0.173
RRIRARPPRLPRPRPRPRKTPRP | 0.29
RRIRARPPRLPRPRPRPRLEPRP | 0.766

Sequence | shrunken log2 fold change
RRIRARPPRLPRPRPRPRNPPRP | 0.225
RRIRARPPRLPRPRPRPRQAPRP | 0.414
RRIRARPPRLPRPRPRPRQKPRP | 0.055
RRIRARPPRLPRPRPRPRQQPRP | 0.277
RRIRARPPRLPRPRPRPRQTPRP | 0.535
RRIRARPPRLPRPRPRPRRCPRP | 0.519
RRIRARPPRLPRPRPRPRRNPRP | 0.308
RRIRARPPRLPRPRPRPRRTPRP | 0.577
RRIRARPPRLPRPRPRPRSPPRP | 0.871
RRIRARPPRLPRPRPRPRSVPRP | 0.665
RRIRARPPRLPRPRPRPRTWPRP | 0.669
RRIRARPPRLPRPRPRPRYFPRP | -0.0939
RRIRARPPRLPRPRPRPRYHPRP | -0.135
RRIRARPPRLPRPRPRPRYNPRP | -0.487
RRIRARPPRLPRPRPRPRYWPRP | 0.213
RRIRARPPRLPRPRPRPSACPRP | 0.359
RRIRARPPRLPRPRPRPSCGPRP | 0.287
RRIRARPPRLPRPRPRPSCMPRP | 0.29
RRIRARPPRLPRPRPRPSCNPRP | -0.515
RRIRARPPRLPRPRPRPSCYPRP | 0.0075
RRIRARPPRLPRPRPRPSEPPRP | 0.11
RRIRARPPRLPRPRPRPSFEPRP | 0.327
RRIRARPPRLPRPRPRPSFKPRP | -0.109
RRIRARPPRLPRPRPRPSFRPRP | -0.262
RRIRARPPRLPRPRPRPSGFPRP | 0.0172

Sequence | shrunken log2 fold change
RRIRARPPRLPRPRPRPSHEPRP | 0.415
RRIRARPPRLPRPRPRPSKCPRP | -0.0295
RRIRARPPRLPRPRPRPSKHPRP | -0.11
RRIRARPPRLPRPRPRPSKNPRP | 0.235
RRIRARPPRLPRPRPRPSKWPRP | -0.101
RRIRARPPRLPRPRPRPSLDPRP | 0.735
RRIRARPPRLPRPRPRPSLLPRP | 0.321
RRIRARPPRLPRPRPRPSMCPRP | -0.081
RRIRARPPRLPRPRPRPSMMPRP | 0.162
RRIRARPPRLPRPRPRPSMVPRP | -0.263
RRIRARPPRLPRPRPRPSNIPRP | -0.447
RRIRARPPRLPRPRPRPSPCPRP | 0.0808
RRIRARPPRLPRPRPRPSPEPRP | 0.41
RRIRARPPRLPRPRPRPSPLPRP | 0.238
RRIRARPPRLPRPRPRPSPYPRP | -0.333
RRIRARPPRLPRPRPRPSQTPRP | 0.416
RRIRARPPRLPRPRPRPSREPRP | 0.816
RRIRARPPRLPRPRPRPSRKPRP | 0.00605
RRIRARPPRLPRPRPRPSRPPRP | 0.612
RRIRARPPRLPRPRPRPSSPPRP | 0.0282
RRIRARPPRLPRPRPRPSTHPRP | -0.0532
RRIRARPPRLPRPRPRPSVNPRP | -0.383
RRIRARPPRLPRPRPRPSVSPRP | -0.457
RRIRARPPRLPRPRPRPSWCPRP | -0.207
RRIRARPPRLPRPRPRPSWPPRP | 0.164

Sequence | shrunken log2 fold change
RRIRARPPRLPRPRPRPSWRPRP | 0.263
RRIRARPPRLPRPRPRPSWSPRP | 0.0204
RRIRARPPRLPRPRPRPSWYPRP | -0.25
RRIRARPPRLPRPRPRPSYNPRP | -0.428
RRIRARPPRLPRPRPRPTALPRP | 0.513
RRIRARPPRLPRPRPRPTDSPRP | 0.00832
RRIRARPPRLPRPRPRPTGQPRP | 0.65
RRIRARPPRLPRPRPRPTHCPRP | 0.518
RRIRARPPRLPRPRPRPTHDPRP | 0.645
RRIRARPPRLPRPRPRPTHMPRP | 0.156
RRIRARPPRLPRPRPRPTICPRP | 0.144
RRIRARPPRLPRPRPRPTIIPRP | -0.0837
RRIRARPPRLPRPRPRPTKQPRP | -0.148
RRIRARPPRLPRPRPRPTKWPRP | 0.4
RRIRARPPRLPRPRPRPTLGPRP | 0.504
RRIRARPPRLPRPRPRPTMCPRP | -0.198
RRIRARPPRLPRPRPRPTMPPRP | 0.364
RRIRARPPRLPRPRPRPTMRPRP | 0.976
RRIRARPPRLPRPRPRPTNGPRP | -0.0688
RRIRARPPRLPRPRPRPTNIPRP | -0.354
RRIRARPPRLPRPRPRPTRYPRP | 0.356
RRIRARPPRLPRPRPRPTSWPRP | 0.756
RRIRARPPRLPRPRPRPTTHPRP | 0.38
RRIRARPPRLPRPRPRPTTNPRP | 0.389
RRIRARPPRLPRPRPRPTTQPRP | 0.584

Sequence | shrunken log2 fold change
RRIRARPPRLPRPRPRPTWYPRP | -0.00985
RRIRARPPRLPRPRPRPTYAPRP | 0.2
RRIRARPPRLPRPRPRPTYIPRP | -0.438
RRIRARPPRLPRPRPRPTYPPRP | -0.0587
RRIRARPPRLPRPRPRPTYVPRP | 0.504
RRIRARPPRLPRPRPRPVACPRP | 0.284
RRIRARPPRLPRPRPRPVAPPRP | 0.612
RRIRARPPRLPRPRPRPVATPRP | 0.982
RRIRARPPRLPRPRPRPVDCPRP | 0.26
RRIRARPPRLPRPRPRPVDFPRP | 0.39
RRIRARPPRLPRPRPRPVDVPRP | -0.113
RRIRARPPRLPRPRPRPVDWPRP | 1.01
RRIRARPPRLPRPRPRPVFFPRP | 0.448
RRIRARPPRLPRPRPRPVFNPRP | -0.297
RRIRARPPRLPRPRPRPVGQPRP | 0.225
RRIRARPPRLPRPRPRPVHVPRP | 0.00822
RRIRARPPRLPRPRPRPVINPRP | -0.383
RRIRARPPRLPRPRPRPVLLPRP | 0.122
RRIRARPPRLPRPRPRPVMQPRP | 0.305
RRIRARPPRLPRPRPRPVPAPRP | 0.814
RRIRARPPRLPRPRPRPVQKPRP | 0.198
RRIRARPPRLPRPRPRPVRQPRP | 0.855
RRIRARPPRLPRPRPRPVSAPRP | 0.455
RRIRARPPRLPRPRPRPVSGPRP | 0.398
RRIRARPPRLPRPRPRPVSLPRP | -0.0174
